In US20260265329A1, “POLYPEPTIDE AND DERIVATIVE THEREOF, COMPOSITION, AND USE THEREOF” (HANGZHOU SCIWIND BIOSCIENCES CO., LTD., priority 2023, published 2026):
Starred links: 1 amine or outer side, 2 acyl side, 3 side chain; linkers in the order of their positions; H or OH if unused. Non-standard residues stand in square brackets, D forms with d. Primed or numbered codes have the meaning given here. *: point of attachment. C20 diacid = O=C(O)CCCCCCCCCCCCCCCCCCC(=O)*; C18 diacid = O=C(O)CCCCCCCCCCCCCCCCC(=O)*; C16 diacid = O=C(O)CCCCCCCCCCCCCCC(=O)*; γGlu = O=C(O)[C@H](CCC(=O)[*:2])N[*:1]; βAsp = O=C(O)[C@H](CC(=O)[*:2])N[*:1]; Hyp = O=C(O)[C@@H]1C[C@@H](O)CN1; Inp′ = not defined here; Trx′ = not defined here; AEEA = NCCOCCOCC(=O)O

T1: human amylin receptor on CHO-K1/Ga15/AMY3 cells (amylin receptor/CRE-luc cell line) (human) (UniProt P30988)
T1 sequence (looked up) 1: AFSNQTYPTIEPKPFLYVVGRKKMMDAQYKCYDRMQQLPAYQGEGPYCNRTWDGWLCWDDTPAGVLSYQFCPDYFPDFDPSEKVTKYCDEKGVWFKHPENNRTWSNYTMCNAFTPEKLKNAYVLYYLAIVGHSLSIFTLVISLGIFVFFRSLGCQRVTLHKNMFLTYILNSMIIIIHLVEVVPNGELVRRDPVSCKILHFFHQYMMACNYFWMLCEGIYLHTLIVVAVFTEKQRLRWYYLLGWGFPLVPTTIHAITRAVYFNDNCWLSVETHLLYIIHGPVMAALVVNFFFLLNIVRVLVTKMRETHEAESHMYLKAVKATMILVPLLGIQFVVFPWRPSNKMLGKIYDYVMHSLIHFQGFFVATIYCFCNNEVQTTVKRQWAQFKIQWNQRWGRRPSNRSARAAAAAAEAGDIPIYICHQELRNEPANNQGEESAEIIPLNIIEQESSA
T1 sequence (looked up) 2: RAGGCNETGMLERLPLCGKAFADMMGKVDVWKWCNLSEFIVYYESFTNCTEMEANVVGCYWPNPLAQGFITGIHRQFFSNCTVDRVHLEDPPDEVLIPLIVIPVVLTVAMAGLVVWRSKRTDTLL


These binders were tested against T1, human amylin receptor on CHO-K1/Ga15/AMY3 cells (amylin receptor/CRE-luc cell line) (human) (assay: cell-based or functional assay).

Row | Binder | EC50 (luciferase assay, amylin receptor/CRE-luc CHO cells) [pM] | Relative activity (the EC50 ratio of Cagrilintide to the compound) [%]
1 | {C20 diacid-βAsp-AEEA-AEEA}-ASQLSTAATQRLADFLRHSSNNLKPILPPTNVGSNT[Hyp]-NH2 (SMILES CC[C@H](C)[C@H](NC(=O)[C@@H]1CCCN1C(=O)[C@H](CCCCN)NC(=O)[C@H](CC(C)C)NC(=O)[C@H](CC(N)=O)NC(=O)[C@H](CC(N)=O)NC(=O)[C@H](CO)NC(=O)[C@H](CO)NC(=O)[C@H](Cc1c[nH]cn1)NC(=O)[C@H](CCCNC(=N)N)NC(=O)[C@H](CC(C)C)NC(=O)[C@H](Cc1ccccc1)NC(=O)[C@H](CC(=O)O)NC(=O)[C@H](C)NC(=O)[C@H](CC(C)C)NC(=O)[C@H](CCCNC(=N)N)NC(=O)[C@H](CCC(N)=O)NC(=O)[C@@H](NC(=O)[C@H](C)NC(=O)[C@H](C)NC(=O)[C@@H](NC(=O)[C@H](CO)NC(=O)[C@H](CC(C)C)NC(=O)[C@H](CCC(N)=O)NC(=O)[C@H](CO)NC(=O)[C@H](C)NC(=O)COCCOCCNC(=O)COCCOCCNC(=O)C[C@H](NC(=O)CCCCCCCCCCCCCCCCCCC(=O)O)C(=O)O)[C@@H](C)O)[C@@H](C)O)C(=O)N[C@@H](CC(C)C)C(=O)N1CCC[C@H]1C(=O)N1CCC[C@H]1C(=O)N[C@H](C(=O)N[C@@H](CC(N)=O)C(=O)N[C@H](C(=O)NCC(=O)N[C@@H](CO)C(=O)N[C@@H](CC(N)=O)C(=O)N[C@H](C(=O)N1C[C@H](O)C[C@H]1C(N)=O)[C@@H](C)O)C(C)C)[C@@H](C)O) [M33] | 145 | 37
2 | {C20 diacid}-D[AEEA][AEEA]ASQLSTAATQRLADFLRHSSNNLKPILPPTNVGSNT[Hyp]-NH2 (SMILES CC[C@H](C)[C@H](NC(=O)[C@@H]1CCCN1C(=O)[C@H](CCCCN)NC(=O)[C@H](CC(C)C)NC(=O)[C@H](CC(N)=O)NC(=O)[C@H](CC(N)=O)NC(=O)[C@H](CO)NC(=O)[C@H](CO)NC(=O)[C@H](Cc1c[nH]cn1)NC(=O)[C@H](CCCNC(=N)N)NC(=O)[C@H](CC(C)C)NC(=O)[C@H](Cc1ccccc1)NC(=O)[C@H](CC(=O)O)NC(=O)[C@H](C)NC(=O)[C@H](CC(C)C)NC(=O)[C@H](CCCNC(=N)N)NC(=O)[C@H](CCC(N)=O)NC(=O)[C@@H](NC(=O)[C@H](C)NC(=O)[C@H](C)NC(=O)[C@@H](NC(=O)[C@H](CO)NC(=O)[C@H](CC(C)C)NC(=O)[C@H](CCC(N)=O)NC(=O)[C@H](CO)NC(=O)[C@H](C)NC(=O)COCCOCCNC(=O)COCCOCCNC(=O)[C@H](CC(=O)O)NC(=O)CCCCCCCCCCCCCCCCCCC(=O)O)[C@@H](C)O)[C@@H](C)O)C(=O)N[C@@H](CC(C)C)C(=O)N1CCC[C@H]1C(=O)N1CCC[C@H]1C(=O)N[C@H](C(=O)N[C@@H](CC(N)=O)C(=O)N[C@H](C(=O)NCC(=O)N[C@@H](CO)C(=O)N[C@@H](CC(N)=O)C(=O)N[C@H](C(=O)N1C[C@H](O)C[C@H]1C(N)=O)[C@@H](C)O)C(C)C)[C@@H](C)O) [M34] | 132 | 40
3 | {C20 diacid}-E[AEEA][AEEA]ASQLSTAATQRLADFLRHSSNNLKPILPPTNVGSNT[Hyp]-NH2 (SMILES CC[C@H](C)[C@H](NC(=O)[C@@H]1CCCN1C(=O)[C@H](CCCCN)NC(=O)[C@H](CC(C)C)NC(=O)[C@H](CC(N)=O)NC(=O)[C@H](CC(N)=O)NC(=O)[C@H](CO)NC(=O)[C@H](CO)NC(=O)[C@H](Cc1c[nH]cn1)NC(=O)[C@H](CCCNC(=N)N)NC(=O)[C@H](CC(C)C)NC(=O)[C@H](Cc1ccccc1)NC(=O)[C@H](CC(=O)O)NC(=O)[C@H](C)NC(=O)[C@H](CC(C)C)NC(=O)[C@H](CCCNC(=N)N)NC(=O)[C@H](CCC(N)=O)NC(=O)[C@@H](NC(=O)[C@H](C)NC(=O)[C@H](C)NC(=O)[C@@H](NC(=O)[C@H](CO)NC(=O)[C@H](CC(C)C)NC(=O)[C@H](CCC(N)=O)NC(=O)[C@H](CO)NC(=O)[C@H](C)NC(=O)COCCOCCNC(=O)COCCOCCNC(=O)[C@H](CCC(=O)O)NC(=O)CCCCCCCCCCCCCCCCCCC(=O)O)[C@@H](C)O)[C@@H](C)O)C(=O)N[C@@H](CC(C)C)C(=O)N1CCC[C@H]1C(=O)N1CCC[C@H]1C(=O)N[C@H](C(=O)N[C@@H](CC(N)=O)C(=O)N[C@H](C(=O)NCC(=O)N[C@@H](CO)C(=O)N[C@@H](CC(N)=O)C(=O)N[C@H](C(=O)N1C[C@H](O)C[C@H]1C(N)=O)[C@@H](C)O)C(C)C)[C@@H](C)O) [M32] | 115 | 44
4 | {C20 diacid-Trx′-AEEA-AEEA}-ASQLSTAATQRLADFLRHSSNNLKPILPPTNVGSNT[Hyp]-NH2 (reading uncertain) [M35] | 43 | 124

More lines, now with the values ahead:

Row | EC50 (luciferase assay, amylin receptor/CRE-luc CHO cells) [pM] | Relative activity (the EC50 ratio of Cagrilintide to the compound) [%] | Binder
5 | 59 | 91 | {C20 diacid-Inp′-AEEA-AEEA}-ASQLSTAATQRLADFLRHSSNNLKPILPPTNVGSNT[Hyp]-NH2 [M36]
6 | 30 | 184 | {C18 diacid-γGlu}-ASQLSTAATQRLADFLRHSSNNLKPILPPTNVGSNT[Hyp]-NH2 (SMILES CC[C@H](C)[C@H](NC(=O)[C@@H]1CCCN1C(=O)[C@H](CCCCN)NC(=O)[C@H](CC(C)C)NC(=O)[C@H](CC(N)=O)NC(=O)[C@H](CC(N)=O)NC(=O)[C@H](CO)NC(=O)[C@H](CO)NC(=O)[C@H](Cc1c[nH]cn1)NC(=O)[C@H](CCCNC(=N)N)NC(=O)[C@H](CC(C)C)NC(=O)[C@H](Cc1ccccc1)NC(=O)[C@H](CC(=O)O)NC(=O)[C@H](C)NC(=O)[C@H](CC(C)C)NC(=O)[C@H](CCCNC(=N)N)NC(=O)[C@H](CCC(N)=O)NC(=O)[C@@H](NC(=O)[C@H](C)NC(=O)[C@H](C)NC(=O)[C@@H](NC(=O)[C@H](CO)NC(=O)[C@H](CC(C)C)NC(=O)[C@H](CCC(N)=O)NC(=O)[C@H](CO)NC(=O)[C@H](C)NC(=O)CC[C@H](NC(=O)CCCCCCCCCCCCCCCCC(=O)O)C(=O)O)[C@@H](C)O)[C@@H](C)O)C(=O)N[C@@H](CC(C)C)C(=O)N1CCC[C@H]1C(=O)N1CCC[C@H]1C(=O)N[C@H](C(=O)N[C@@H](CC(N)=O)C(=O)N[C@H](C(=O)NCC(=O)N[C@@H](CO)C(=O)N[C@@H](CC(N)=O)C(=O)N[C@H](C(=O)N1C[C@H](O)C[C@H]1C(N)=O)[C@@H](C)O)C(C)C)[C@@H](C)O) [M37]
7 | 30 | 181 | {C16 diacid-γGlu}-ASQLSTAATQRLADFLRHSSNNLKPILPPTNVGSNT[Hyp]-NH2 (SMILES CC[C@H](C)[C@H](NC(=O)[C@@H]1CCCN1C(=O)[C@H](CCCCN)NC(=O)[C@H](CC(C)C)NC(=O)[C@H](CC(N)=O)NC(=O)[C@H](CC(N)=O)NC(=O)[C@H](CO)NC(=O)[C@H](CO)NC(=O)[C@H](Cc1c[nH]cn1)NC(=O)[C@H](CCCNC(=N)N)NC(=O)[C@H](CC(C)C)NC(=O)[C@H](Cc1ccccc1)NC(=O)[C@H](CC(=O)O)NC(=O)[C@H](C)NC(=O)[C@H](CC(C)C)NC(=O)[C@H](CCCNC(=N)N)NC(=O)[C@H](CCC(N)=O)NC(=O)[C@@H](NC(=O)[C@H](C)NC(=O)[C@H](C)NC(=O)[C@@H](NC(=O)[C@H](CO)NC(=O)[C@H](CC(C)C)NC(=O)[C@H](CCC(N)=O)NC(=O)[C@H](CO)NC(=O)[C@H](C)NC(=O)CC[C@H](NC(=O)CCCCCCCCCCCCCCC(=O)O)C(=O)O)[C@@H](C)O)[C@@H](C)O)C(=O)N[C@@H](CC(C)C)C(=O)N1CCC[C@H]1C(=O)N1CCC[C@H]1C(=O)N[C@H](C(=O)N[C@@H](CC(N)=O)C(=O)N[C@H](C(=O)NCC(=O)N[C@@H](CO)C(=O)N[C@@H](CC(N)=O)C(=O)N[C@H](C(=O)N1C[C@H](O)C[C@H]1C(N)=O)[C@@H](C)O)C(C)C)[C@@H](C)O) [M38]
